Source: PMC12421383, “Autophosphorylation of conserved yeast and human casein kinase 1 isozymes regulates Elongator-dependent tRNA modifications” (Nucleic Acids Research, 2025)
Each block holds one binder with its values, some of them ahead of it.

B1: full-length (FL) yeast Hrr25, nonphosphorylated (enzyme, Saccharomyces cerevisiae (budding yeast), UniProt P29295 1-494, looked up)
chain: MDLRVGRKFRIGRKIGSGSFGDIYHGTNLISGEEVAIKLESIRSRHPQLDYESRVYRYLSGGVGIPFIRWFGREGEYNAMVIDLLGPSLEDLFNYCHRRFSFKTVIMLALQMFCRIQYIHGRSFIHRDIKPDNFLMGVGRRGSTVHVIDFGLSKKYRDFNTHRHIPYRENKSLTGTARYASVNTHLGIEQSRRDDLESLGYVLIYFCKGSLPWQGLKATTKKQKYDRIMEKKLNVSVETLCSGLPLEFQEYMAYCKNLKFDEKPDYLFLARLFKDLSIKLEYHNDHLFDWTMLRYTKAMVEKQRDLLIEKGDLNANSNAASASNSTDNKSETFNKIKLLAMKKFPTHFHYYKNEDKHNPSPEEIKQQTILNNNAASSLPEELLNALDKGMENLRQQQPQQQVQSSQPQPQPQQLQQQPNGQRPNYYPEPLLQQQQRDSQEQQQQVPMATTRATQYPPQINSNNFNTNQASVPPQMRSNPQQPPQDKPAGQSIWL
notes: cloned into pFastBacHT A with a TEV cleavage site after the tag; also called FL Hrr25; Hrr25 WT; source: Trichoplusia ni High Five cells, purified (NiNTA, gel filtration)

How the values were obtained:
Test in all cases: pull-down; 20 μg GST-tagged bait mixed with equimolar Hrr25 variant, GST Sepharose 4B, 1 h at 4°C; 20 mM Tris pH 7.5, 150 mM NaCl, 0.5% Tween 20, 2 mM DTT, 2 mM MgCl2; three washes; SDS-PAGE and WB with Hrr25-specific antibodies
Conditions in all cases: both partners purified
FL GST-Elp1 = target: T1, FL GST-Elp1 (Saccharomyces cerevisiae (budding yeast), UniProt Q06706 1-1349)
T1 construct: Elp1, Elongator subunit of Saccharomyces cerevisiae, full length, expressed from the pETM30 vector; also called Elongator subunit Elp1
T1 sequence (looked up): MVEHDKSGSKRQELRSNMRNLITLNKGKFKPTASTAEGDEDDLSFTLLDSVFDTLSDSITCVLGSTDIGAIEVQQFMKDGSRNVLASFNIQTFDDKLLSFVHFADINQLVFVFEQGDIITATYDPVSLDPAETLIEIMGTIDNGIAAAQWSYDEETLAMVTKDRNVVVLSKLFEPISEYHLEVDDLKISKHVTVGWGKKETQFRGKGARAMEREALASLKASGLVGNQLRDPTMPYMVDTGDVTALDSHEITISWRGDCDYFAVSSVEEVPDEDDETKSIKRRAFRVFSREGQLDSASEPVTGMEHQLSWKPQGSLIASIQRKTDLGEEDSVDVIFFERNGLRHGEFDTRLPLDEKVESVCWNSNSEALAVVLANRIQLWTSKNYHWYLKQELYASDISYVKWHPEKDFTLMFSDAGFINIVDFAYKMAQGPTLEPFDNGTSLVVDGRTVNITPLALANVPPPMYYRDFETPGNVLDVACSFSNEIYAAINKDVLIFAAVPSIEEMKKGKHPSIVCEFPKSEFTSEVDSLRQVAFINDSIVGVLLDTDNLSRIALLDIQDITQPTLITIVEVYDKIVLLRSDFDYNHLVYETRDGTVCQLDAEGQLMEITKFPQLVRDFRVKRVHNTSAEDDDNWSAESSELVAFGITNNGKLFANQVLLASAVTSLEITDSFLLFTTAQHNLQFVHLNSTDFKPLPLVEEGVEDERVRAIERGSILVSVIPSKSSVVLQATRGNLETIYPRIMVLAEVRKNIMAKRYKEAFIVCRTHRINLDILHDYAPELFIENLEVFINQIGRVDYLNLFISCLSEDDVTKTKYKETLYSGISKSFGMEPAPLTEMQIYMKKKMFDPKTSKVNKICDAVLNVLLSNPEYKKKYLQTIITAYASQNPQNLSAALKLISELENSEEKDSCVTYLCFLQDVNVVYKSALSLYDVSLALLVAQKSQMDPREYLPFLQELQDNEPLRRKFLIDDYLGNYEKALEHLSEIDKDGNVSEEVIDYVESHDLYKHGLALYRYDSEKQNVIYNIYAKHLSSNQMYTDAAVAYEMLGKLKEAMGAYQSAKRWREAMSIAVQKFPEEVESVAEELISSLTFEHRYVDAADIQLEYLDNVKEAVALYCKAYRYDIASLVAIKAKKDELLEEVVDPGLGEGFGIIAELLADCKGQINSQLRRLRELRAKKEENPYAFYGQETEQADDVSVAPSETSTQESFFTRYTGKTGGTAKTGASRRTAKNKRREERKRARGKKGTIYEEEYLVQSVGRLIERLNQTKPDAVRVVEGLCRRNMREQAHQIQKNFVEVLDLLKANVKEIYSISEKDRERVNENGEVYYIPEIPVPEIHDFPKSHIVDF

[1] = target: B1
[2] = target: T2, Hrr25 1-394, nonphosphorylated (Saccharomyces cerevisiae (budding yeast), UniProt P29295 1-394)
T2 construct: pETM11 with a TEV cleavage site after the tag; also called P/Q truncation; truncation variant lacking the P/Q-rich region; source: E. coli pRARE cells, purified (NiNTA, gel filtration)
T2 sequence (looked up): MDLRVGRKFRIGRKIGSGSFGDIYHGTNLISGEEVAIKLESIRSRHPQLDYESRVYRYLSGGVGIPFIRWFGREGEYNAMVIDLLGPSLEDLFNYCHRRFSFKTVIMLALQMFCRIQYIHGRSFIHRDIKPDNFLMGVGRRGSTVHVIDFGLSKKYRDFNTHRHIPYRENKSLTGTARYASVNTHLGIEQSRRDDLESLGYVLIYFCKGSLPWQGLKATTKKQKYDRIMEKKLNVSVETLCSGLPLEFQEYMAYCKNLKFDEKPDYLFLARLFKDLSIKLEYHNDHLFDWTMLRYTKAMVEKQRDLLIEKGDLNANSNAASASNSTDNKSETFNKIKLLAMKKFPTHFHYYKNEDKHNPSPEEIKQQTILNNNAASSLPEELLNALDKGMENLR

GST-Elp1 1-734 = target: T3, GST-Elp1 1-734 (Saccharomyces cerevisiae (budding yeast), UniProt Q06706 1-734)
T3 construct: also called truncated form of GST-Elp1
T3 sequence (looked up): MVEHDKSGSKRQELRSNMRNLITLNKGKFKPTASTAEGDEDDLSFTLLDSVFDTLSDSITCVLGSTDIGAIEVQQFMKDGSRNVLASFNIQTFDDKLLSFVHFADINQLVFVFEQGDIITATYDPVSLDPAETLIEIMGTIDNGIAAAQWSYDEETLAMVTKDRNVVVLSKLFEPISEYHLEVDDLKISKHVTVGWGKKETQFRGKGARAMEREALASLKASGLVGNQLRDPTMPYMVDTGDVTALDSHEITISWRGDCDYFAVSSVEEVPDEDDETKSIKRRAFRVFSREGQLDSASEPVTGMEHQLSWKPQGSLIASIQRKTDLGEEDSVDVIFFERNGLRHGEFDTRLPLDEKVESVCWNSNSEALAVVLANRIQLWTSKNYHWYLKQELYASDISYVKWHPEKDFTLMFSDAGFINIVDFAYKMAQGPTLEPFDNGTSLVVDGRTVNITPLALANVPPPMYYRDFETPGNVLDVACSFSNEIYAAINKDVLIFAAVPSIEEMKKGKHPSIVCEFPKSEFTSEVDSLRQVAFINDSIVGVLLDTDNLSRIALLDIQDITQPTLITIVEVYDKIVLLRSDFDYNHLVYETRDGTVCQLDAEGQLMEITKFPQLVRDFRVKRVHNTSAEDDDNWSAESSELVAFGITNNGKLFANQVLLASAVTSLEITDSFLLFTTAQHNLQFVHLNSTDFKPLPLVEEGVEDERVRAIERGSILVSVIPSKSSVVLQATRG

Binder: B1
binding result (FL GST-Elp1): binds

B2: full-length (FL) yeast Hrr25, autophosphorylated (enzyme, Saccharomyces cerevisiae (budding yeast), UniProt P29295 1-494, looked up)
chain: MDLRVGRKFRIGRKIGSGSFGDIYHGTNLISGEEVAIKLESIRSRHPQLDYESRVYRYLSGGVGIPFIRWFGREGEYNAMVIDLLGPSLEDLFNYCHRRFSFKTVIMLALQMFCRIQYIHGRSFIHRDIKPDNFLMGVGRRGSTVHVIDFGLSKKYRDFNTHRHIPYRENKSLTGTARYASVNTHLGIEQSRRDDLESLGYVLIYFCKGSLPWQGLKATTKKQKYDRIMEKKLNVSVETLCSGLPLEFQEYMAYCKNLKFDEKPDYLFLARLFKDLSIKLEYHNDHLFDWTMLRYTKAMVEKQRDLLIEKGDLNANSNAASASNSTDNKSETFNKIKLLAMKKFPTHFHYYKNEDKHNPSPEEIKQQTILNNNAASSLPEELLNALDKGMENLRQQQPQQQVQSSQPQPQPQQLQQQPNGQRPNYYPEPLLQQQQRDSQEQQQQVPMATTRATQYPPQINSNNFNTNQASVPPQMRSNPQQPPQDKPAGQSIWL
modifications: autophosphorylation sites mapped by MS: phospho-Thr27, Ser31, Ser143, Thr144, Ser181, Ser191, Ser198, Ser438, Thr449, Thr453, Ser461, Ser470, Ser491
notes: Hrr25, casein kinase 1 of Saccharomyces cerevisiae, full length, after autophosphorylation with ATP; also called pHrr25; autophosphorylated FL kinase; source: Trichoplusia ni High Five cells, purified (NiNTA, gel filtration); incubated with 1 mM ATP for 1 h at 30°C
binding result (FL GST-Elp1): binds

Further lines, results first:

binding result [1]: binds
binding result [2]: binds
B3: GST-tagged Sit4 (enzyme, Saccharomyces cerevisiae (budding yeast), UniProt P20604 1-311, looked up)
chain: MVSRGPDEWLETIKKCQALTENEMKQLCEMVKELLMEESNIQPVQTPVTVCGDIHGQFHDLLELFRTAGGFPDDINYIFLGDYVDRGYYSLETFTLLMCLKVKYPAKITLVRGNHESRQITQVYGFYEECLNKYGSTTVWKYCCQVFDFLTLAAIIDGKILCVHGGLSPEIRMLDQIRVLSRAQEVPHEGGFSDLLWSDPDNVEAWQVSPRGAGWLFGSKVAREFNHVNGLNLIARAHQLVMEGFKYHFPEKDVVTVWSAPNYCYRCGNVASVMKVDEDLEPTFKIFSAVPDDYIRESTANHNNQRAGYFL
notes: Sit4, phosphatase of Saccharomyces cerevisiae, expressed from the pETM30 vector; also called GST-Sit4; Sit4 phosphatase

binding result (GST-Elp1 1-734): binds
B4: Hrr25 1-394, autophosphorylated (domain or fragment, Saccharomyces cerevisiae (budding yeast), UniProt P29295 1-394, looked up)
chain: MDLRVGRKFRIGRKIGSGSFGDIYHGTNLISGEEVAIKLESIRSRHPQLDYESRVYRYLSGGVGIPFIRWFGREGEYNAMVIDLLGPSLEDLFNYCHRRFSFKTVIMLALQMFCRIQYIHGRSFIHRDIKPDNFLMGVGRRGSTVHVIDFGLSKKYRDFNTHRHIPYRENKSLTGTARYASVNTHLGIEQSRRDDLESLGYVLIYFCKGSLPWQGLKATTKKQKYDRIMEKKLNVSVETLCSGLPLEFQEYMAYCKNLKFDEKPDYLFLARLFKDLSIKLEYHNDHLFDWTMLRYTKAMVEKQRDLLIEKGDLNANSNAASASNSTDNKSETFNKIKLLAMKKFPTHFHYYKNEDKHNPSPEEIKQQTILNNNAASSLPEELLNALDKGMENLR
modifications: autophosphorylation sites mapped by MS: the sites detected in full length Hrr25 (Thr27, Ser31, Ser143, Thr144, Ser181, Ser191, Ser198) and in addition Ser41, Ser44, Ser60, Ser153, Thr161, Ser236, Thr239, Ser242, Tyr266, Ser317, Thr326, Ser330, Thr346, Ser376
notes: source: E. coli pRARE cells, purified (NiNTA, gel filtration); incubated with 1 mM ATP for 1 h at 30°C
